The data set “crystal structure” concerns the molecule itself. Nature of the data set: crystal structure.
The data set “cryo-EM structure” concerns the molecule itself. Nature of the data set: cryo-EM structure.

The text below walks through data of PMC8978092 (Cell, 2022).

B1: Enterococcus pore-forming toxin 4 (Epx4), residues 32-335, C-terminal His6 (natural protein)
chain: SEDNIIGTTTQEIDEHGNVKTIITVKNQQIESYTSTDSGTAKNRSTLTVNANFLNDKYSNELTTILSLNGFIPSGRKFIFPKNNTLKGEMLWPQRYSTAVYNIPLDKSVKITNSTPDNTIRSKEVSNSITYGIGGGIKMEGKQPGANLDANAAITKTISYQQPDYETAKTTSTVTGVNWNTNFTETRDGYTRNSWNPVYGNQMFMYGRYTSNIRNNFTPDYQLSSLITSGFSPSYGLVLRAPKDVKKSRIKVVFARRSETYQQNWDGLNWWGRNFYDTKNPDSLSKVTLTFELDWQNHRVTFIELEHHHHHH
On to B1, for which, in “crystal structure”, the stoichiometry N (in general, a count of units in the complex or per binding partner) stood at 8.

B2: Enterococcus pore-forming toxin 1 (Epx1), residues 24-345, C-terminal His6 (natural protein)
chain: DVQVFADNPVLGTEVTFEKDENGRIVKIISKNQYRITIYNSVDAGDTPNDASVSLDVDFIDDKNSGEMGAVASINTFIPSGLRYVEGYKYKGVTNPIYKNLSAGMLWPKKYRVEVVNIPIDQATKIITATPNNNIKEKQVSDTISYGFGGSVSADGKKPGGSIEANLAYTKTTTYDQPDYETSQIKKTTKEAVWDTSFVETRDGYTPNSWNPVYGNQMFMRGRYSNVSPIDNIKKGGEVSSLISGGFSPKMGVVLASPNGTKKSQFVVRVSRMSDMYIMRWSGTEWGGENEINQNVPKEYNALMYEDVKFEIDWEQRTVRTILEHHHHHH
Take B2: the “stoichiometry N” value in the data set “cryo-EM structure” turned out to be 8.
